# T1: MBP-protA fragment aa 1–659 (Wuhan nodavirus (WhNV), UniProt Q3KSM3 1-659)
# T1 construct: also called 1–659 MBP/protA; source: E. coli strain TB1, purified (amylose resin); not shown: MBP, N-terminal, kept
# T1 sequence: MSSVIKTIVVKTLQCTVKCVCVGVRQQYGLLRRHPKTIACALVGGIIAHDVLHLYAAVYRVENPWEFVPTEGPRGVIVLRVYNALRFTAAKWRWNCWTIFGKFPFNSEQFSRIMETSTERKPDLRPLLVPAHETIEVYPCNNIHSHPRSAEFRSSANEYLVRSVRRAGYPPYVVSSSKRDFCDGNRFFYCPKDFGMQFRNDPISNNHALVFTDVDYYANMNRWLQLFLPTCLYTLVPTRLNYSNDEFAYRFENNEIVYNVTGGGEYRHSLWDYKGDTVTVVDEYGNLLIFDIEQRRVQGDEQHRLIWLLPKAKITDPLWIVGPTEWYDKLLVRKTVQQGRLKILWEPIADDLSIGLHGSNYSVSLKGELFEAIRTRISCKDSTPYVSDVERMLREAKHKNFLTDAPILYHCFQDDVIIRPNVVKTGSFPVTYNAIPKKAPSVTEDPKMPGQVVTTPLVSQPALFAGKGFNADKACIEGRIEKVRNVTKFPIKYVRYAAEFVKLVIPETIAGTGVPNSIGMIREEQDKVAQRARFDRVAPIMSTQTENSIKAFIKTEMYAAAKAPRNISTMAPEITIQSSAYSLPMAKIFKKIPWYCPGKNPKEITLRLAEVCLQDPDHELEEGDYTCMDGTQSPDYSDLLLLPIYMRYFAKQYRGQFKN
# T2: MBP-protA fragment aa 255–480 (Wuhan nodavirus (WhNV), UniProt Q3KSM3 255-480)
# T2 construct: source: E. coli strain TB1, purified (amylose resin); not shown: MBP, N-terminal, kept
# T2 sequence: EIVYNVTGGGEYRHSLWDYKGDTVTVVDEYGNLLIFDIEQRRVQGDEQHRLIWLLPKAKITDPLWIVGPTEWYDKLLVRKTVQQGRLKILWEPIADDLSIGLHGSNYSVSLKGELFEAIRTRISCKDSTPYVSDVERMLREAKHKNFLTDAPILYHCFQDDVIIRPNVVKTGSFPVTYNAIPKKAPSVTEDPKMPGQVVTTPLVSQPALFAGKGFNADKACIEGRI
# T3: MBP-protA fragment aa 1–839 (Wuhan nodavirus (WhNV), UniProt Q3KSM3 1-839)
# T3 construct: also called 1–839 MBP/protA; source: E. coli strain TB1, purified (amylose resin); not shown: MBP, N-terminal, kept
# T3 sequence: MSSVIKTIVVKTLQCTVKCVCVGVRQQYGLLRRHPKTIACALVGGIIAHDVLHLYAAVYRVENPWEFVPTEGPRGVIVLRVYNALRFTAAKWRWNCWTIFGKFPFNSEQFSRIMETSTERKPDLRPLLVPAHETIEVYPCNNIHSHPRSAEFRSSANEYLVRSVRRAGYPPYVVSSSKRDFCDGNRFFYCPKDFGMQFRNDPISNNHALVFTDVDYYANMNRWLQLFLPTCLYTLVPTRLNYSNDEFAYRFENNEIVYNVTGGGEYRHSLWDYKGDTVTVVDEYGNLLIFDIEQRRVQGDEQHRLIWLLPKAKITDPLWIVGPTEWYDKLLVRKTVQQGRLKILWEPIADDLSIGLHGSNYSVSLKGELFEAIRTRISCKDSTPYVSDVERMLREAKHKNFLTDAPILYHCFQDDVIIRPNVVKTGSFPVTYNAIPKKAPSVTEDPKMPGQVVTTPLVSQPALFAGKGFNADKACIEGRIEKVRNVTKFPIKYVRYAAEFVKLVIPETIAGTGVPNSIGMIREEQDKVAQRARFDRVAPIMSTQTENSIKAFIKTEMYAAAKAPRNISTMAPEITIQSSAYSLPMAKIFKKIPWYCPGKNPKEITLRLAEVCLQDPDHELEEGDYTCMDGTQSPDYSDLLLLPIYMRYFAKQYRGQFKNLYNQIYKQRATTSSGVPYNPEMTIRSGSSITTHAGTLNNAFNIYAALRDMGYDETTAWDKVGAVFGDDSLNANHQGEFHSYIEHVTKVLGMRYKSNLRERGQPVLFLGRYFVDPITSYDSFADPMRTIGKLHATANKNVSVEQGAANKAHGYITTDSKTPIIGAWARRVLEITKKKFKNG
# Experiments:
# Test in all cases: pull-down; MBP fusion protein (1 µM) held on amylose resin, His-tagged protein (1 µM) in vitro translated in rabbit reticulocyte lysate; room temperature, 4 hrs; no lipids; Western blot with anti-His; signals given as % of FL to FL protein A self-interaction
# Details in all cases: one partner purified
# [1] = molecular target: T1, MBP-protA fragment aa 1–659
# [2] = molecular target: T2, MBP-protA fragment aa 255–480
# [3] = molecular target: T3, MBP-protA fragment aa 1–839
binder,measurement,setting,value
"His-tagged WhNV protein A, in vitro translated (natural protein, also called His-protA; FL His-protA; source: in vitro translated in nuclease-treated rabbit reticulocyte lysates) MSSVIKTIVVKTLQCTVKCVCVGVRQQYGLLRRHPKTIACALVGGIIAHDVLHLYAAVYRVENPWEFVPTEGPRGVIVLRVYNALRFTAAKWRWNCWTIFGKFPFNSEQFSRIMETSTERKPDLRPLLVPAHETIEVYPCNNIHSHPRSAEFRSSANEYLVRSVRRAGYPPYVVSSSKRDFCDGNRFFYCPKDFGMQFRNDPISNNHALVFTDVDYYANMNRWLQLFLPTCLYTLVPTRLNYSNDEFAYRFENNEIVYNVTGGGEYRHSLWDYKGDTVTVVDEYGNLLIFDIEQRRVQGDEQHRLIWLLPKAKITDPLWIVGPTEWYDKLLVRKTVQQGRLKILWEPIADDLSIGLHGSNYSVSLKGELFEAIRTRISCKDSTPYVSDVERMLREAKHKNFLTDAPILYHCFQDDVIIRPNVVKTGSFPVTYNAIPKKAPSVTEDPKMPGQVVTTPLVSQPALFAGKGFNADKACIEGRIEKVRNVTKFPIKYVRYAAEFVKLVIPETIAGTGVPNSIGMIREEQDKVAQRARFDRVAPIMSTQTENSIKAFIKTEMYAAAKAPRNISTMAPEITIQSSAYSLPMAKIFKKIPWYCPGKNPKEITLRLAEVCLQDPDHELEEGDYTCMDGTQSPDYSDLLLLPIYMRYFAKQYRGQFKNLYNQIYKQRATTSSGVPYNPEMTIRSGSSITTHAGTLNNAFNIYAALRDMGYDETTAWDKVGAVFGDDSLNANHQGEFHSYIEHVTKVLGMRYKSNLRERGQPVLFLGRYFVDPITSYDSFADPMRTIGKLHATANKNVSVEQGAANKAHGYITTDSKTPIIGAWARRVLEITKKKFKNGTGEEQYRCSNAWPQKDEAAIRAAMAAVLEVDEAQLIAQNEAVLKVNSLDQFPVVFDTYYDHKQLAEVDGQLVGTDLHIKEEDERQPETSIDSVPSTGPPPSNGDPNAGGKPTDGPSKGKRKVKGRRPRTAGDPATLRLTDAGSSRRVKPPRKLRPEAKRGGRPIETLVFKNSSLS","self-interaction efficiency, % of FL to FL protein A self-interaction",[1],96%
same,"self-interaction efficiency, % of FL to FL protein A self-interaction",[2],52%
same,"self-interaction efficiency, % of FL to FL protein A self-interaction",[3],108%

# — paper PMC3934934, “The Self-Interaction of a Nodavirus Replicase Is Enhanced by Mitochondrial Membrane Lipids” (PLoS ONE, 2014)
